The values below come from the supplement of paper PMC7877785.

A short description of the data set: self-splicing fitness, log relative to wild type (ln ratio); higher = more splicing; Tetrahymena group I intron in knt gene, E. coli kanamycin selection, DiMSum; sequences stand for … in CUCUCU…GGAGGGAAAAGUUAUCAGGCAUGCACCUGGUAGCUAGUCUUUAAACCAAUAGAUUGCAUCGGUUUAAAAGGCAAGACCGUCAAAUUGCGGGAAAGGGGUCAACAGCCGUUCAGUACCAAGUCUCAGGGGAAACUUUGAGAUGGCCUUGCAAAGGGUAUGGUAAUAAGCUGACGGACAUGGUCCUAACCACGCAGCCAAGUCCUAAGUCAACAGAUCUUCUGUUGAUAUGGAUGCAGUUCACAGACUAAAUGUCGGUCGGGGAAGAUGUAUUCUUCUCAUAAGAUAUAGUCGGACCUCUCCUUAAUGGGAGCUAGCGGAUGAAGUGAUGCAACACUGGAGCCGCUGGGAACUAAUUUGUAUGCGAAAGUAUAUUGAUUAGUUUUGGAGUACUCGUGGUCG
Put shortly:
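A randomised library covering all eight P1ex-region intron nucleotides was built with the intron in the knt kanamycin-resistance gene on pET-22b(+) and held in E. coli BL21(DE3). Cells were grown overnight at 37°C or 30°C on LB agar, with or without 25 μg/mL kanamycin, plus 100 μg/mL carbenicillin, 50 μM IPTG and 0.2% rhamnose, and pooled colonies were amplicon-sequenced on an Illumina HiSeq 2500. DiMSum fitness is the error-weighted combination of wild-type-normalised replicate fold changes, kanamycin versus none.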

± gives the uncertainty stated by the source.

Regarding CGGAAGCAAUAUUACGAGGG, under “30 °C”, the “self-splicing fitness (ln)” value is -0.374 ± 0.41.
For the sequence AAGGAGCAAUAUUACGAGCU, the “self-splicing fitness (ln)” value (37 °C) was -0.204 ± 0.24.
UCGAAGCAAUAUUACGGGUC: the “self-splicing fitness (ln)” value reads like this: (30 °C) -4.14 ± 0.33; (37 °C) -2.54 ± 0.44.
For UUAUAGCAAUAUUACGGUAC, in that order: -2.88 ± 0.28 and -2.45 ± 0.41.
Taken in the same sequence, the figures for UCGUAGCAAUAUUACGGUCA were -0.782 ± 0.16 and -0.0592 ± 0.13.
Taken in the same sequence, the figures for GUAAAGCAAUAUUACGCGUG were -1.05 ± 0.076 and -0.992 ± 0.08.
As for UUUUAGCAAUAUUACGAAAA, the “self-splicing fitness (ln)” value by setting is: (30 °C) -1.13 ± 0.17; (37 °C) -0.0479 ± 0.18.
CUCAAGCAAUAUUACGGUAG: the “self-splicing fitness (ln)” value by setting is: (30 °C) -2.03 ± 0.074; (37 °C) -0.579 ± 0.08.
In the case of UCAAAGCAAUAUUACGUCUA, the “self-splicing fitness (ln)” value runs as follows: (30 °C) -1.92 ± 0.1; (37 °C) -0.787 ± 0.098.
For CCGAAGCAAUAUUACGACCU, the “self-splicing fitness (ln)” value (30 °C) was -3.73 ± 0.32 and the “self-splicing fitness (ln)” value (37 °C) was -2.3 ± 0.36.
Taken in the same sequence, the figures for UUCCAGCAAUAUUACGCCAA were -0.739 ± 0.12 and -0.362 ± 0.17.
Taken in the same sequence, the figures for ACCGAGCAAUAUUACGUUAU were -3.78 ± 0.14 and -2.6 ± 0.15.
As to UUUCAGCAAUAUUACGGCGU, the “self-splicing fitness (ln)” value runs as follows: (30 °C) -2.37 ± 0.14; (37 °C) -0.454 ± 0.14.
AGGGAGCAAUAUUACGAUCG: the “self-splicing fitness (ln)” value (30 °C) was -2.68 ± 0.27 and the “self-splicing fitness (ln)” value (37 °C) was -2.19 ± 0.46.
For GUAUAGCAAUAUUACGGAAA, the “self-splicing fitness (ln)” value by setting is: (30 °C) -2.1 ± 0.43; (37 °C) -2.81 ± 0.32.
For UUACAGCAAUAUUACGUAUU, in that order: -2.89 ± 0.14 and -1.55 ± 0.12.
Taken in the same sequence, the figures for ACUUAGCAAUAUUACGCUCG were -0.969 ± 0.1 and -0.233 ± 0.16.
As to CCGCAGCAAUAUUACGCUGA, the “self-splicing fitness (ln)” value (30 °C) was -3.21 ± 0.34.
CGGCAGCAAUAUUACGCUCA: the “self-splicing fitness (ln)” value (30 °C) was -0.116 ± 0.15 and the “self-splicing fitness (ln)” value (37 °C) was -0.137 ± 0.16.
Consider ACUGAGCAAUAUUACGGGGC, for which the “self-splicing fitness (ln)” value is -4.03 ± 0.33 (30 °C) and -1.57 ± 0.22 (37 °C).
For AGAUAGCAAUAUUACGAUCG, in that order: 0.112 ± 0.058 and 0.0462 ± 0.1.
Taken in the same sequence, the figures for GCCGAGCAAUAUUACGUACA were -2.85 ± 0.18 and -1.85 ± 0.17.
As for AAGCAGCAAUAUUACGUAAU, the “self-splicing fitness (ln)” value is -1.49 ± 0.068 (30 °C) and -0.923 ± 0.094 (37 °C).
With UUGCAGCAAUAUUACGUUAU, the “self-splicing fitness (ln)” value reads like this: (30 °C) -3.03 ± 0.22; (37 °C) -2.6 ± 0.21.
Turning to CAAAAGCAAUAUUACGUAAA, the “self-splicing fitness (ln)” value (30 °C) was -1.47 ± 0.092 and the “self-splicing fitness (ln)” value (37 °C) was -1.32 ± 0.11.
Turning to CCAAAGCAAUAUUACGUGAA, the “self-splicing fitness (ln)” value runs as follows: (30 °C) -4.04 ± 0.17; (37 °C) -3.18 ± 0.27.
For GACAAGCAAUAUUACGUGUU, in that order: -3.4 ± 0.12 and -2.21 ± 0.12.
Consider CCAUAGCAAUAUUACGACAA, for which the “self-splicing fitness (ln)” value is -3.06 ± 0.41 (30 °C) and -2.94 ± 0.35 (37 °C).
Taken in the same sequence, the figures for AGUGAGCAAUAUUACGUACG were -2.22 ± 0.16 and -1.3 ± 0.13.
In the case of AGAGAGCAAUAUUACGGCUC, the “self-splicing fitness (ln)” value (30 °C) is -3.01 ± 0.27 and the “self-splicing fitness (ln)” value (37 °C) is -1.37 ± 0.25.
As to ACGAAGCAAUAUUACGGAAG, the “self-splicing fitness (ln)” value was -2.54 ± 0.12 (30 °C) and -2.4 ± 0.19 (37 °C).
Consider GGUUAGCAAUAUUACGUCUG, for which the “self-splicing fitness (ln)” value was -2.1 ± 0.14 (30 °C) and -0.405 ± 0.11 (37 °C).
For UCACAGCAAUAUUACGGUUA, in that order: -0.541 ± 0.072 and 0.291 ± 0.08.
For UAACAGCAAUAUUACGCGAU, in that order: -3.97 ± 0.32 and -2.36 ± 0.23.
For ACUUAGCAAUAUUACGUCUA, in that order: -1.67 ± 0.16 and -1.83 ± 0.17.
Take AGUUAGCAAUAUUACGACCC: the “self-splicing fitness (ln)” value is -0.338 ± 0.19 (30 °C) and -0.0159 ± 0.49 (37 °C).
As for GUACAGCAAUAUUACGGUUA, the “self-splicing fitness (ln)” value by setting is: (30 °C) -0.862 ± 0.058; (37 °C) -0.00855 ± 0.057.
Taken in the same sequence, the figures for AUAAAGCAAUAUUACGCGUU were -1.56 ± 0.084 and 0.0344 ± 0.1.
As for UUGUAGCAAUAUUACGUAGA, the “self-splicing fitness (ln)” value is, setting by setting: (30 °C) -2.75 ± 0.13; (37 °C) -1.23 ± 0.12.
Take UCAAAGCAAUAUUACGGGGA: the “self-splicing fitness (ln)” value (30 °C) was -0.69 ± 0.075 and the “self-splicing fitness (ln)” value (37 °C) is -0.383 ± 0.085.
For the sequence GCAAAGCAAUAUUACGUAUU, the “self-splicing fitness (ln)” value (30 °C) was -2.65 ± 0.075 and the “self-splicing fitness (ln)” value (37 °C) was -1.29 ± 0.081.
Turning to GAUUAGCAAUAUUACGCAAG, the “self-splicing fitness (ln)” value runs as follows: (30 °C) -2.11 ± 0.14; (37 °C) -1.3 ± 0.13.
Turning to CGCAAGCAAUAUUACGUUCC, the “self-splicing fitness (ln)” value was -2.95 ± 0.15 (30 °C) and -1.06 ± 0.12 (37 °C).
For GAGGAGCAAUAUUACGAGCG, in that order: -3.24 ± 0.35 and -1.55 ± 0.28.
For GUGGAGCAAUAUUACGCGUU, in that order: -2.56 ± 0.16 and -1.94 ± 0.23.
On to UACGAGCAAUAUUACGGUCC, for which the “self-splicing fitness (ln)” value (30 °C) was -3.61 ± 0.43.
GCCAAGCAAUAUUACGACCG: the “self-splicing fitness (ln)” value reads like this: (30 °C) -3.81 ± 0.22; (37 °C) -2.01 ± 0.12.
Consider CGUAAGCAAUAUUACGACUG, for which the “self-splicing fitness (ln)” value is -0.564 ± 0.081 (30 °C) and 0.421 ± 0.13 (37 °C).
AGCCAGCAAUAUUACGCACC: the “self-splicing fitness (ln)” value (30 °C) is -0.939 ± 0.18 and the “self-splicing fitness (ln)” value (37 °C) is -1.12 ± 0.18.
Taken in the same sequence, the figures for CGACAGCAAUAUUACGUGGU were -3.79 ± 0.18 and -3.34 ± 0.17.
For UAAUAGCAAUAUUACGGGGA, in that order: -1.91 ± 0.15 and -2.65 ± 0.34.
For UAGAAGCAAUAUUACGAACA, in that order: -0.322 ± 0.16 and -0.859 ± 0.17.
With AACAAGCAAUAUUACGCUGU, the “self-splicing fitness (ln)” value (30 °C) is -3.38 ± 0.12 and the “self-splicing fitness (ln)” value (37 °C) is -2.32 ± 0.13.
Turning to UAUCAGCAAUAUUACGUCGA, the “self-splicing fitness (ln)” value is -1.16 ± 0.1 (30 °C) and 0.104 ± 0.12 (37 °C).
As for AGAGAGCAAUAUUACGCCUU, the “self-splicing fitness (ln)” value reads like this: (30 °C) -3.56 ± 0.29; (37 °C) -2.16 ± 0.21.
As for AUCCAGCAAUAUUACGGACA, the “self-splicing fitness (ln)” value is, setting by setting: (30 °C) -0.527 ± 0.099; (37 °C) -0.096 ± 0.11.
Regarding UGCGAGCAAUAUUACGGAGG, where the note is “37 °C”, the “self-splicing fitness (ln)” value was -1.17 ± 0.18.
As to UCGGAGCAAUAUUACGGACG, the “self-splicing fitness (ln)” value by setting is: (30 °C) -1.65 ± 0.21; (37 °C) 0.113 ± 0.17.
Taken in the same sequence, the figures for GGUAAGCAAUAUUACGAAUC were -0.515 ± 0.13 and -0.339 ± 0.16.
On to AGGAAGCAAUAUUACGGGCA, for which the “self-splicing fitness (ln)” value is, setting by setting: (30 °C) -1.55 ± 0.21; (37 °C) -1.13 ± 0.23.
For the sequence GUGGAGCAAUAUUACGGGAU, the “self-splicing fitness (ln)” value is -4.12 ± 0.23 (30 °C) and -1.99 ± 0.24 (37 °C).
For GUAAAGCAAUAUUACGUCCC, in that order: -1.07 ± 0.19 and 0.449 ± 0.26.
For AAAGAGCAAUAUUACGCCCA, in that order: -2.88 ± 0.32 and -2.02 ± 0.28.
Turning to CCGUAGCAAUAUUACGGGGG, the “self-splicing fitness (ln)” value reads like this: (30 °C) -4.09 ± 0.24; (37 °C) -3.23 ± 0.26.
Take CUAUAGCAAUAUUACGUCAC: the “self-splicing fitness (ln)” value (30 °C) was -3.4 ± 0.28 and the “self-splicing fitness (ln)” value (37 °C) is -1.77 ± 0.31.
Taken in the same sequence, the figures for CCGUAGCAAUAUUACGCUAA were -3.32 ± 0.35 and -1.35 ± 0.36.
For GACCAGCAAUAUUACGCUAA, in that order: -1.18 ± 0.078 and 0.196 ± 0.093.
As for GAAGAGCAAUAUUACGAACG, the “self-splicing fitness (ln)” value (37 °C) is -2.41 ± 0.33.
ACACAGCAAUAUUACGACGC: the “self-splicing fitness (ln)” value (30 °C) was -0.0854 ± 0.07 and the “self-splicing fitness (ln)” value (37 °C) came out at 0.622 ± 0.093.
For AAAGAGCAAUAUUACGGGAA, the “self-splicing fitness (ln)” value was -2.67 ± 0.32 (30 °C) and -2.16 ± 0.28 (37 °C).
For UUGCAGCAAUAUUACGUAAG, in that order: -0.486 ± 0.089 and 0.527 ± 0.11.
Consider CGGAAGCAAUAUUACGAGAU, for which, under “37 °C”, the “self-splicing fitness (ln)” value was -2.18 ± 0.33.
As to GCCAAGCAAUAUUACGGAAC, the “self-splicing fitness (ln)” value reads like this: (30 °C) -1.73 ± 0.18; (37 °C) -0.77 ± 0.18.
On to CUCCAGCAAUAUUACGCUUC, for which the “self-splicing fitness (ln)” value was -3.31 ± 0.24 (30 °C) and -2.27 ± 0.23 (37 °C).
As for GGACAGCAAUAUUACGAACG, the “self-splicing fitness (ln)” value (30 °C) was -0.686 ± 0.08 and the “self-splicing fitness (ln)” value (37 °C) was -0.333 ± 0.1.
Turning to GUUGAGCAAUAUUACGAAGA, the “self-splicing fitness (ln)” value (37 °C) was -2.71 ± 0.48.
Turning to GUGGAGCAAUAUUACGUACA, the “self-splicing fitness (ln)” value (30 °C) is -2.11 ± 0.33.
For the sequence AGUCAGCAAUAUUACGCUAC, the “self-splicing fitness (ln)” value is -3.7 ± 0.24 (30 °C) and -4.03 ± 0.46 (37 °C).
